Test results reported in patent publication EP0251446B1, “Non-human Carbonyl hydrolase mutants, DNA sequences and vectors encoding same and hosts transformed with said vectors” (GENENCOR INTERNATIONAL, INC., priority 1986, dated 1988).

Tests used:
Type in all cases: biochemical, B. amyloliquefaciens
[1] = substrate: CSCC[C@H](NC(=O)[C@@H]1CCCN1C(=O)[C@H](C)NC(=O)[C@H](C)NC(=O)CCC(=O)O)C(=O)Nc1ccc([N+](=O)[O-])cc1; experiment: Kinetics of p-nitroanilide substrate hydrolysis, S156; settings: other: Table XIV, 156 Ser / 166 Gly; value in parentheses; synthetic substrate with label as P-1 amino acid; 37.0 °C
From the text: (§1) Wild-type subtilisin was purified from B. subtilis culture supernatants expressing the B. amyloliquefaciens subtilisin gene (Wells, J.A., et al. (1983) Nucleic Acids Res. 11, 7911-7925) as previously described (Estell, D.A., et al. (1985) J. Biol. Chem. 260, 6518-6521). Details of the synthesis of tetrapeptide substrates having the form succinyl-L-AlaL-AlaL-ProL-[X]-p-nitroanilide (where X is the P1 amino acid) are described by DelMar, E.G., et al. (1979) Anal. Biochem. 99, 316-320. Kinetic parameters, Km(M) and kcat-(s-^1) were measured using a modified progress curve analysis (Estell, D.A., et al. (1985) J. Biol. Chem. 260, 6518-6521). Briefly, plots of rate versus product concentration were fit to the differential form of the rate equation using a non-linear regression algorithm. Errors in kcat and Km for all values reported are less than five percent. The various substrates in Table VIII are ranged in order of decreasing hydrophobicity. Nozaki, Y. (1971), J. Biol. Chem. 246, 2211-2217; Tanford C. (1978) Science 200, 1012).
(§2) Construction of position 156 single mutants were prepared by ligation of the three fragments (1-3) indicated at the bottom of Figure 21. Fragment 3, containing the carboxy-terminal portion of the subtilisin gene including the wild type position 166 codon, was isolated as a 610 bp Sacl-BamHI fragment. Fragment 1 contained the vector sequences, as well as the amino-terminal sequences of the subtilisin gene through codon 151. To produce fragment 1, a unique Kpnl site at codon 152 was introduced into the wild type subtilisin sequence from pS4.5. Site-directed mutagenesis in M13 employed a primer having the sequence 5'-TA-GTC-GTT-GCG-GTA-CCC-GGT-AAC-GAA-3' to produce the mutation. Enrichment for the mutant sequence was accomplished by restriction with Kpnl, purification and self ligation. The mutant sequence containing the Kpnl site was confirmed by direct plasmid sequencing to give pV152. pV152 (-1 µg) was digested with Kpnl and treated with 2 units of DNA polymerase I large fragment (Klenow fragment from Boeringer-Mannheim) plus 50 µM deoxynucleotide triphosphates at 37°C for 30 min. This created a blunt end that terminated with codon 151. The DNA was extracted with 1:1 volumes phenol and CHC13 and DNA in the aqueous phase was precipitated by addition of 0.1 volumes 5M ammonium acetate and two volumes ethanol. After centrifugation and washing the DNA pellet with 70% ethanol, the DNA was lyophilized. DNA was digested with BamHl and the 4.6kb piece (fragment 1) was purified by acrylamide gel electrophoresis followed by electroelution. […] The top strand was synthesized to contain a glutamine codon, and the complementary bottom strand coded for serine at 156. Ligation of heterophosphorylated cassettes leads to a large and favorable bias for the phosphorylated over the non-phosphorylated oligonucleotide sequence in the final segrated plasmid product. Therefore, to obtain Q156 the top strand was phosphorylated, and annealed to the non-phosphorylated bottom strand prior to ligation. Similarly, to obtain S156 the bottom strand was phosphorylated and annealed to the non-phosphorylated top strand. Mutant sequences were isolated after ligation and transformation, and were confirmed by restriction analysis and DNA sequencing as before. To express variant subtilisins, plasmids were transformed into a subtilisin-neutral protease deletion mutant of B. subtilis, BG2036, as previously described. Cultures were fermented in shake flasks for 24 h at 37 ° C in LB media containing […] chloramphenicol and subtilisin was purified from culture supernatants as described. Purity of subtilisin was greater than 95% as judged by SDS PAGE.
(§3) These mutant plasmids designated pS156 and pQ156 and mutant subtilisins designated S156 and Q156 were analyzed with the above synthetic substrates where P-1 comprised the amino acids Glu, Gln, Met and Lys. The results of this analyses are presented in Example 9. […]

[2] = substrate: C[C@H](NC(=O)CCC(=O)O)C(=O)N[C@@H](C)C(=O)N1CCC[C@H]1C(=O)N[C@@H](CCC(=O)O)C(=O)Nc1ccc([N+](=O)[O-])cc1; experiment: as above; settings: 37.0 °C
From the text: as §1, §2, §3

[3] = substrate: C[C@H](NC(=O)CCC(=O)O)C(=O)N[C@@H](C)C(=O)N1CCC[C@H]1C(=O)N[C@@H](CCC(N)=O)C(=O)Nc1ccc([N+](=O)[O-])cc1; experiment: as above; settings: other: Table XIV, 156 Ser / 166 Gly; value in parentheses; synthetic substrate with label as P-1 amino acid; 37.0 °C
From the text: as §1, §2, §3

[4] = substrate: C[C@H](NC(=O)CCC(=O)O)C(=O)N[C@@H](C)C(=O)N1CCC[C@H]1C(=O)N[C@@H](Cc1ccccc1)C(=O)Nc1ccc([N+](=O)[O-])cc1; experiment: as above; settings: other: Table XIII, S156; synthetic substrate with label as P-1 residue; 37.0 °C
From the text: as §1, §2, §3

[5] = substrate: C[C@H](NC(=O)CCC(=O)O)C(=O)N[C@@H](C)C(=O)N1CCC[C@H]1C(=O)N[C@@H](CCCCN)C(=O)Nc1ccc([N+](=O)[O-])cc1; experiment: as above; settings: other: Table XIV, 156 Ser / 166 Gly; value in parentheses; synthetic substrate with label as P-1 amino acid; 37.0 °C
From the text: as §1, §2, §3

[6] = substrate: CSCC[C@H](NC(=O)[C@@H]1CCCN1C(=O)[C@H](C)NC(=O)[C@H](C)NC(=O)CCC(=O)O)C(=O)Nc1ccc([N+](=O)[O-])cc1; experiment: Kinetics of p-nitroanilide substrate hydrolysis, Q156; settings: other: Table XIV, 156 Gln / 166 Gly; value in parentheses; synthetic substrate with label as P-1 amino acid; 37.0 °C
From the text: as §1, §2, §3

[7] = substrate: C[C@H](NC(=O)CCC(=O)O)C(=O)N[C@@H](C)C(=O)N1CCC[C@H]1C(=O)N[C@@H](CCC(=O)O)C(=O)Nc1ccc([N+](=O)[O-])cc1; experiment: as above; settings: 37.0 °C
From the text: as §1, §2, §3

[8] = substrate: C[C@H](NC(=O)CCC(=O)O)C(=O)N[C@@H](C)C(=O)N1CCC[C@H]1C(=O)N[C@@H](CCC(N)=O)C(=O)Nc1ccc([N+](=O)[O-])cc1; experiment: as above; settings: other: Table XIV, 156 Gln / 166 Gly; value in parentheses; synthetic substrate with label as P-1 amino acid; 37.0 °C
From the text: as §1, §2, §3

[9] = substrate: C[C@H](NC(=O)CCC(=O)O)C(=O)N[C@@H](C)C(=O)N1CCC[C@H]1C(=O)N[C@@H](Cc1ccccc1)C(=O)Nc1ccc([N+](=O)[O-])cc1; experiment: as above; settings: other: Table XIII, enzyme E156; synthetic substrate with label as P-1 residue; 37.0 °C
From the text: as §1, §2, §3

[10] = substrate: C[C@H](NC(=O)CCC(=O)O)C(=O)N[C@@H](C)C(=O)N1CCC[C@H]1C(=O)N[C@@H](CCCCN)C(=O)Nc1ccc([N+](=O)[O-])cc1; experiment: as above; settings: other: Table XIV, 156 Gln / 166 Gly; value in parentheses; synthetic substrate with label as P-1 amino acid; 37.0 °C
From the text: as §1, §2, §3

[11] = substrate: CSCC[C@H](NC(=O)[C@@H]1CCCN1C(=O)[C@H](C)NC(=O)[C@H](C)NC(=O)CCC(=O)O)C(=O)Nc1ccc([N+](=O)[O-])cc1; experiment: Kinetics of p-nitroanilide substrate hydrolysis, R166; settings: other: Table XIV, 156 Glu / 166 Arg; value in parentheses; synthetic substrate with label as P-1 amino acid
From the text: as §1
(§4) The construction of subtilisin mutants containing the substitution of the ionic amino acids Asp, Asn, Gln, Lys and Ang are disclosed in EPO Publication No. 0130756. The present example describes the construction of the mutant subtilisin containing Glu at position 166 (E166) and presents substrate specificity data on these mutants. Further data on position 166 and 156 single and double mutants is presented infra.
(§5) Each of these mutants was analyzed with the tetrapeptide substrates, succinyl-L-AlaL-AlaProL-X-p-nitroanilide, where X was Phe, Ala and Glu.

[12] = substrate: C[C@H](NC(=O)CCC(=O)O)C(=O)N[C@@H](C)C(=O)N1CCC[C@H]1C(=O)N[C@@H](CCC(=O)O)C(=O)Nc1ccc([N+](=O)[O-])cc1; experiment: as above; settings: other: Table XIV, 156 Glu / 166 Arg; value in parentheses; synthetic substrate with label as P-1 amino acid
From the text: as §1, §4, §5

[13] = substrate: C[C@H](NC(=O)CCC(=O)O)C(=O)N[C@@H](C)C(=O)N1CCC[C@H]1C(=O)N[C@@H](CCC(N)=O)C(=O)Nc1ccc([N+](=O)[O-])cc1; experiment: as above; settings: other: Table XIV, 156 Glu / 166 Arg; value in parentheses; synthetic substrate with label as P-1 amino acid
From the text: as §1, §4, §5

[14] = substrate: C[C@H](NC(=O)CCC(=O)O)C(=O)N[C@@H](C)C(=O)N1CCC[C@H]1C(=O)N[C@@H](CCCCN)C(=O)Nc1ccc([N+](=O)[O-])cc1; experiment: as above; settings: other: Table XIV, 156 Glu / 166 Arg; value in parentheses; synthetic substrate with label as P-1 amino acid
From the text: as §1, §4, §5

[15] = other: Table XIII, S156, synthetic substrate with label as P-1 residue
[16] = other: Table XIII, enzyme E156, synthetic substrate with label as P-1 residue

B1: B. amyloliquefaciens subtilisin variant S156 (Glu156 to Ser) (Bacillus amyloliquefaciens; E263S) (protein)
chain: AQSVPYGVSQIKAPALHSQGYTGSNVKVAVIDSGIDSSHPDLKVAGGASMVPSETNPFQDNNSHGTHVAGTVAALNNSIGVLGVAPSASLYAVKVLGADGSGQYSWIINGIEWAIANNMDVINMSLGGPSGSAALKAAVDKAVASGVVVVAAAGNSGTSGSSSTVGYPGKYPSVIAVGAVDSSNQRASFSSVGPELDVMAPGVSIQSTLPGNKYGAYNGTSMASPHVAGAAALILSKHPNWTNTQVRSSLENTTTKLGDSFYYGKGLINVQAAAQ
notes: at various amino acid residues within the mature form of the subtilisin molecule; made in house; host or cells: Bacillus subtilis BG2036
B1 showed a Km [1] of 28.2 µM, a Km [2, 15] of 1800 µM and a kcat [2, 15] of 0.40 s-^1. For the same protein, the Km ([2]; other: Table XIV, 156 Ser / 166 Gly, value in parentheses, synthetic substrate with label as P-1 amino acid) was 1860 µM, the Km [3] was 209 µM and the Km [4] was 47 µM. The kcat [4] was 34.00 s-^1, the kcat/Km [4] was 730000 M⁻¹ s⁻¹ and the Km [5] was 1820 µM.

B2: B. amyloliquefaciens subtilisin variant Q156 (Glu156 to Gln) (Bacillus amyloliquefaciens; E263Q) (protein)
chain: AQSVPYGVSQIKAPALHSQGYTGSNVKVAVIDSGIDSSHPDLKVAGGASMVPSETNPFQDNNSHGTHVAGTVAALNNSIGVLGVAPSASLYAVKVLGADGSGQYSWIINGIEWAIANNMDVINMSLGGPSGSAALKAAVDKAVASGVVVVAAAGNQGTSGSSSTVGYPGKYPSVIAVGAVDSSNQRASFSSVGPELDVMAPGVSIQSTLPGNKYGAYNGTSMASPHVAGAAALILSKHPNWTNTQVRSSLENTTTKLGDSFYYGKGLINVQAAAQ
notes: as for B1
Work on B2 yielded a Km [6] of 24.5 µM, a Km [7, 16] of 3300 µM and a kcat [7, 16] of 0.90 s-^1. For the same protein, the kcat/Km [7, 16] was 270 M⁻¹ s⁻¹, the Km ([7]; other: Table XIV, 156 Gln / 166 Gly, value in parentheses, synthetic substrate with label as P-1 amino acid) was 3310 µM and the Km [8] was 155 µM. For the same protein, the Km [9] was 45 µM, the kcat [9] was 48.00 s-^1 and the kcat/Km [9] was 1.1e+06 M⁻¹ s⁻¹. It also gave a Km [10] of 1510 µM.

B3: B. amyloliquefaciens subtilisin variant R166 (Gly166 to Arg) (Bacillus amyloliquefaciens; G273R) (protein)
chain: AQSVPYGVSQIKAPALHSQGYTGSNVKVAVIDSGIDSSHPDLKVAGGASMVPSETNPFQDNNSHGTHVAGTVAALNNSIGVLGVAPSASLYAVKVLGADGSGQYSWIINGIEWAIANNMDVINMSLGGPSGSAALKAAVDKAVASGVVVVAAAGNEGTSGSSSTVRYPGKYPSVIAVGAVDSSNQRASFSSVGPELDVMAPGVSIQSTLPGNKYGAYNGTSMASPHVAGAAALILSKHPNWTNTQVRSSLENTTTKLGDSFYYGKGLINVQAAAQ
notes: as for B1
With B3 the Km [11] was 60.3 µM, the Km [12] was 501 µM and the Km [13] was 316 µM. For the same protein, the Km [14] was 1580 µM.
